According to the supplement of paper PMC10567573:

B1: CAMK2A (parent)
chain: ILLVGYPPFWDEDQHRLYKQIKAG

Variants of: B1
Test: protein stability index of a GFP-peptide fusion (GPS, HEK-293T) (PSI 1-6); higher = more stable
Settings: c terminus: a fixed tail appended
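Note: lentivirally expressed fusions sorted by FACS into six bins by GFP to DsRed ratio, PSI derived from sequencing read proportions per bin multiplied by bin number.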

Protein stability index of substitutions, site by site:
I21: H 1.47 | Y 1.84 | R 2.05 | P 1.42 | S 1.82 | E 1.92 | C 2.35 | T 1.73 | W 2.4 | F 3.06 | A 1.79 | Q 2.28 | D 1.99 | K 1.65 | N 2.19 | M 1.72 | V 1.89 | L 2.31 | G 1.54
D11: M 2.52 | E 3.38 | C 2.48 | R 1.21 | A 2.34 | L 2.39 | T 1.85 | V 2.18 | Y 1.61 | S 2.62 | G 1.55 | H 2.29 | I 3.45 | K 2.46 | N 2.59 | W 2.44 | F 3.09 | P 2.35
Y18: T 3.2 | Q 1.51 | D 1.97 | R 2.45 | F 1.4 | I 2.21 | W 2.45 | E 2.38 | N 2.05 | A 2.09 | M 2.16 | G 2.79 | L 2.48 | V 1.25 | H 1.89 | C 1.73 | P 1.71 | K 2.31 | S 1.95
E12: P 2.84 | M 3.3 | T 1.96 | H 2.29 | R 2.23 | Q 3.3 | I 2.76 | Y 2.57 | V 2.56 | D 2.27 | K 1.92 | A 1.49 | F 2.03 | N 1.42 | L 1.95 | W 2.32
W10: E 1.78 | H 1.56 | M 1.18 | T 2.34 | A 1.73 | K 1.6 | C 1.64 | P 3.75 | L 2.54 | Y 2.05 | R 1.52 | S 2.45 | G 1.86 | N 1.71 | V 2.05 | I 2.71 | D 1.69 | Q 2.27 | F 2.27
D13: R 2.19 | F 3.02 | T 2.2 | C 2.36 | E 1.76 | L 3.98 | K 3.5 | H 2.2 | A 3.24 | P 2.24 | V 2.54 | S 2.06 | Q 2.42 | I 2.18 | M 3.08
F9: C 2.58 | G 1.67 | M 1.99 | N 2.86 | V 2.37 | P 2.13 | T 1.84 | R 2.83 | I 1.62 | Y 1.5 | Q 2.38 | A 1.65 | E 1.44 | H 1.84 | S 2.19 | D 1.77 | L 2.27 | W 1.28 | K 2.52
K19: W 2.65 | T 1.72 | F 2.66 | E 1.87 | V 2.9 | D 2.82 | N 3.09 | Q 2.79 | I 2.67 | A 1.65 | S 2.63 | H 1.38 | Y 3.14 | R 1.36 | P 1.73 | M 3.5 | G 3.31
Q20: H 2.86 | R 2 | D 1.9 | L 2.6 | M 2.36 | C 1.94 | W 2.02 | G 2.1 | A 1.78 | I 1.96 | K 1.56 | V 3.11 | F 2.69 | S 1.86 | P 1.39 | T 1.62 | E 2.18 | N 1.83
K22: Y 2.43 | C 2.31 | I 2.55 | R 1.91 | T 2.52 | P 2.74 | S 3.22 | H 1.52 | G 1.63 | Q 3.46 | W 2.2 | V 2.15 | F 2.94 | D 1.97 | A 2.87 | E 1.96 | N 2.6 | M 2.6
Q14: K 1.68 | W 1.57 | P 3.6 | D 2.32 | S 2.59 | Y 2.54 | A 2.65 | E 2.01 | I 2.05 | N 2.33 | V 2.89 | F 2.52 | G 3.47 | T 2.98 | R 2.78 | L 2.35 | H 2.67
V4: H 2.23 | N 1.92 | K 2.23 | T 2.31 | Q 2.33 | L 2.66 | R 1.47 | Y 2.13 | I 3.1 | P 1.73 | S 1.65
A23: N 2.67 | D 1.98 | Q 2.82 | G 1.72 | L 2.11 | K 2.1 | P 1.8 | I 2.82 | R 2.21 | E 2.26 | H 1.58 | M 2.06 | F 2.23 | S 2.46
H15: E 2.14 | S 2.89 | Q 2.51 | A 2.55 | G 2.21 | I 2.31 | P 2.6 | F 2.5 | N 2.2 | W 2.08 | D 2.13 | C 3.07 | K 1.24 | T 2.8 | V 2.84 | L 2.16
Y6: S 1.43 | K 1.39 | H 1.28 | C 1.62 | A 1.67 | T 1.77 | M 2.36 | N 1.93 | Q 2.17 | G 2.23 | W 3.13 | L 1.61 | I 5.07 | V 1.45 | D 2.12 | E 2.1 | F 2.73 | P 2.19
P8: A 1.83 | K 2.06 | T 1.87 | L 1.81 | V 2.96 | Y 1.98 | E 2.1 | D 1.67 | M 1.89 | C 4.72 | R 3.38 | N 4.23 | F 2.95
P7: W 2.73 | Q 1.28 | L 2.89 | H 3.75 | I 2.46 | Y 4.41 | T 2.56 | E 1.43 | F 2.85 | A 1.47 | G 2.31 | D 1.39 | M 2.9 | V 2.63
R16: M 2.07 | I 1.62 | V 2.67 | L 2.27 | W 1.62 | H 2.12 | D 2.63 | N 2.27 | F 2.2 | S 2.5 | C 2.16 | T 1.29 | Y 3.24 | K 1.57 | G 1.64 | A 2.61 | P 1.54 | Q 1.84 | E 2.2
L17: R 2.12 | H 1.75 | W 2.09 | D 2.06 | V 2.21 | P 2.03 | G 1.58 | S 1.8 | N 1.31 | A 1.62 | T 2.14 | M 2.47 | C 1.19 | E 2.09 | F 2.12 | Q 2.3 | K 1.74 | I 2.1 | Y 2.38
G5: E 3.74 | H 2.32 | P 3.17 | A 2.27 | K 2.35 | W 1.53 | V 3.83 | T 2.74 | N 1.99 | F 3.4 | M 2.53 | Y 1.49 | Q 2.37 | R 2.65 | D 1.55
